Measurements: patent US20150344570A1 (published 2015)

T1: FcγRIIa H (human, UniProt P12318 34-217)
T1 construct: extracellular domain; also called FcγRIIa type H; 2aH
T1 sequence (looked up): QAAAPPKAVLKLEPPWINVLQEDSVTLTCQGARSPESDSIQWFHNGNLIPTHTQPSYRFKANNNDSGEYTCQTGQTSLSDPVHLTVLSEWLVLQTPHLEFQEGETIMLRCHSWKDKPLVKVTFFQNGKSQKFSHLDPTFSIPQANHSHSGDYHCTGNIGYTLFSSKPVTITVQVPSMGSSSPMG

T2: FcγRIIb (human, UniProt P31994 43-217)
T2 construct: extracellular domain; also called 2b; FcgRIIb
T2 sequence (looked up): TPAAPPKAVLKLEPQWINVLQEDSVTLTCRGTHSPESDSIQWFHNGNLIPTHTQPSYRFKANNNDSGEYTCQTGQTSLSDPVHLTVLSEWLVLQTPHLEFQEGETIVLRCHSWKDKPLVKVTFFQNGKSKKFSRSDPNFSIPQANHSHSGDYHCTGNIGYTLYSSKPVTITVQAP

T3: FcγRIIb (human, UniProt P31994 43-217)
T3 construct: extracellular domain; also called FcgRIIb; 2b; not shown: His tag at the C terminus
T3 sequence (looked up): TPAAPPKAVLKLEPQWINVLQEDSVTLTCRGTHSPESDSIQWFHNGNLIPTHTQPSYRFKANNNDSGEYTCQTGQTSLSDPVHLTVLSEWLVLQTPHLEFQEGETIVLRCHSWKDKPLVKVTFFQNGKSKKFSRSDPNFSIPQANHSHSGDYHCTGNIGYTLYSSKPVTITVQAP

T4: FcγRIIa R (human, UniProt P12318 34-217)
T4 construct: extracellular domain; also called FcgRIIa R type; 2aR; not shown: His tag at the C terminus
T4 sequence (looked up): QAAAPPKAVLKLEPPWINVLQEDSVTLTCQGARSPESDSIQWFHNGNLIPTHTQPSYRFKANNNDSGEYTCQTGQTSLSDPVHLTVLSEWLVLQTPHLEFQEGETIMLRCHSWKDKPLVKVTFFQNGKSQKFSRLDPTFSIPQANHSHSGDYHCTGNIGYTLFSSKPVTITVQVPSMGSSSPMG


Experiments:
FcγRIIa H [1] = target: T1, FcγRIIa H; assay: ratio of He/Con_2aH to He/Con_2b (FcγRIIb); SPR
FcγRIIa H [2] = target: T1, FcγRIIa H; assay: SPR (Biacore), captured antibody, FcγR as analyte; GpH7-A5/GpH7-B3/GpL16-k0 = 100
FcγRIIb [3] = target: T2, FcγRIIb; assay: as above
FcγRIIb [4] = target: T3, FcγRIIb; assay: SPR, relative to GpH7-A5/GpH7-B3/GpL16-k0
FcγRIIa R [5] = target: T4, FcγRIIa R; assay: SPR, relative to GpH7-A5/GpH7-B3/GpL16-k0
FcγRIIa R [6] = target: T4, FcγRIIa R; assay: SPR; He/Con_2aR divided by He/Con_2b (FcγRIIa R over FcγRIIb)
[7] = target: T5, FcγRIIIa extracellular domain with C-terminal His tag (human, UniProt P08637 17-208); assay: SPR (Biacore), antibody captured on antigen peptide chip, FcγR as analyte; GpH7-A5/GpH7-B3/GpL16-k0 = 100
T5 construct: extracellular domain; also called FcgRIIIa; 3a
Procedure: (§1) The heterodimerized antibodies He Abs in which one of the H chains was introduced with an alteration were assayed for their binding activities to each activating FcγR and inhibitory FcγR according to the method described in Example 4. […] The activating FcγRs in FIGS. 26, 27, 28, and 29 are FcγRIa, FcγRIIa (R), FcγRIIa (H), and FcγRIIIa, respectively.
(§2) Analysis of interaction between objective antibody and the FcγR was carried out using Biacore T100 (GE Healthcare). HBS-EP+ (GE Healthcare) was used as the running buffer, and the measurement temperature was set to 25° C. Chips produced by immobilizing the antigen peptide by the amine coupling method to a Series S Sencor Chip CM5 (GE Healthcare), or alternatively, chips produced by allowing preliminarily biotinylated antigen peptides to interact with and immobilize onto a Series S Sensor Chip SA (certified) (GE Healthcare) were used. Antibodies of interest were captured onto an antigen peptide-immobilized chip, and allowed to interact to each FcγR diluted with running buffer. To regenerate and repeatedly use the chip, the antibodies captured on the chip were washed off by reacting 10 mM glycine-HCl, pH 1.5.
T5 sequence (P08637 17-208): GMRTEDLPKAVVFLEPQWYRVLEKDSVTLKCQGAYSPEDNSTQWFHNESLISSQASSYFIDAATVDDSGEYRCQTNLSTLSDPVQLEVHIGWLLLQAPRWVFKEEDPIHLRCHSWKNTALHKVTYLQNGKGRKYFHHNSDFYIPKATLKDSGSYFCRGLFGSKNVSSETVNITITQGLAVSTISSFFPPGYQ

[8] = target: T5, FcγRIIIa extracellular domain with …; assay: SPR (Biacore); He/Con_3a divided by He/Con_2b (FcγRIIIa against FcγRIIb)
Procedure: as §1, §2

[9] = target: T6, FcγRIIIa extracellular domain with C-terminal His tag (human, UniProt P08637 17-208); assay: SPR (Biacore), FcγR as analyte over captured antibody; GpH7-A5/GpH7-B3/GpL16-k0 = 100
T6 construct: extracellular domain; also called FcgRIIIa; 3a; not shown: His tag at the C terminus
Procedure: as §1, §2
T6 sequence (P08637 17-208): as above

[10] = target: T6, FcγRIIIa extracellular domain with …; assay: SPR (Biacore); He/Con_3a divided by He/Con_2b (FcγRIIb)

Row | Binder | He_2aH/2b (IIaH/IIb ratio) (FcγRIIa H [1]) | He/Con_2aH (relative binding) (FcγRIIa H [2]) | He/Con_2b (relative binding) (FcγRIIb [3]) | also measured
1 | GpH7-A5/GpH7-B3 variant Y300_02A/GpL16-k0 (antibody, human IgG1, kappa, Heterodimerized anti-glypican-3 IgG1 (He Ab); mutation in the B3 H chain only; also called He Ab) heavy 1: not shown heavy 2: not shown light: DIVMTQSPLSLPVTPGEPASISCQASESLVHSNRNTYLHWYLQKPGQSPQLLIYKVSNRFSGVPDRFSGSGSGTDFTLKISRVEAEDVGVYYCSQNTHVPPTFGQGTKVEIERTVAAPSVFIFPPSDEQLKSGTASVVCLLNNFYPREAKVQWKVDNALQSGNSQESVTEQDSKDSTYSLSSTLTLSKADYEKHKVYACEVTHQGLSSPVTKSFNRGEC | 1.35 | 93.5% | 69.2% | 
2 | GpH7-A5/GpH7-B3 variant S267_08L/GpL16-k0 (antibody, human IgG1, kappa, Heterodimerized anti-glypican-3 IgG1; mutation in the GpH7-B3 chain only; also called He Ab) heavy 1: not shown heavy 2: not shown light: DIVMTQSPLSLPVTPGEPASISCQASESLVHSNRNTYLHWYLQKPGQSPQLLIYKVSNRFSGVPDRFSGSGSGTDFTLKISRVEAEDVGVYYCSQNTHVPPTFGQGTKVEIERTVAAPSVFIFPPSDEQLKSGTASVVCLLNNFYPREAKVQWKVDNALQSGNSQESVTEQDSKDSTYSLSSTLTLSKADYEKHKVYACEVTHQGLSSPVTKSFNRGEC |  |  |  | He/Con_2b (FcγRIIb [4]): 109 control = 100; He/Con_2aR (FcγRIIa R [5]): 72.1 control = 100; He_2aR/2b (FcγRIIa R [6]): 0.66 ratio
3 | GpH7-A5/GpH7-B3 variant Y300_07I/GpL16-k0 (antibody, human IgG1, kappa, Heterodimerized anti-glypican-3 IgG1 (He Ab); mutation in the B3 H chain only; also called He Ab) heavy 1: not shown heavy 2: not shown light: DIVMTQSPLSLPVTPGEPASISCQASESLVHSNRNTYLHWYLQKPGQSPQLLIYKVSNRFSGVPDRFSGSGSGTDFTLKISRVEAEDVGVYYCSQNTHVPPTFGQGTKVEIERTVAAPSVFIFPPSDEQLKSGTASVVCLLNNFYPREAKVQWKVDNALQSGNSQESVTEQDSKDSTYSLSSTLTLSKADYEKHKVYACEVTHQGLSSPVTKSFNRGEC | 1.45 | 108% | 74.5% | 
4 | GpH7-A5/GpH7-B3 variant L328_12R/GpL16-k0 (antibody, human IgG1, kappa, Heterodimerized anti-glypican-3 IgG1; mutation in the GpH7-B3 chain only; also called He Ab) heavy 1: not shown heavy 2: not shown light: DIVMTQSPLSLPVTPGEPASISCQASESLVHSNRNTYLHWYLQKPGQSPQLLIYKVSNRFSGVPDRFSGSGSGTDFTLKISRVEAEDVGVYYCSQNTHVPPTFGQGTKVEIERTVAAPSVFIFPPSDEQLKSGTASVVCLLNNFYPREAKVQWKVDNALQSGNSQESVTEQDSKDSTYSLSSTLTLSKADYEKHKVYACEVTHQGLSSPVTKSFNRGEC |  |  |  | He/Con_3a (relative binding activity) [7]: 32.7 % of control; He_3a/2b (IIIa/IIb) [8]: 3.53 ratio
5 | GpH7-A5/GpH7-B3 variant Y300_05P/GpL16-k0 (antibody, human IgG1, kappa, Heterodimerized IgG1 antibody; alteration in the GpH7-B3 chain only; also called He Ab) heavy 1: not shown heavy 2: not shown light: DIVMTQSPLSLPVTPGEPASISCQASESLVHSNRNTYLHWYLQKPGQSPQLLIYKVSNRFSGVPDRFSGSGSGTDFTLKISRVEAEDVGVYYCSQNTHVPPTFGQGTKVEIERTVAAPSVFIFPPSDEQLKSGTASVVCLLNNFYPREAKVQWKVDNALQSGNSQESVTEQDSKDSTYSLSSTLTLSKADYEKHKVYACEVTHQGLSSPVTKSFNRGEC |  |  |  | He/Con_3a [9]: 2.8 % of control; He_3a/2b (IIIa/IIb) [10]: 0.38 ratio
6 | GpH7-A5/GpH7-B3 variant L328_11K/GpL16-k0 (antibody, human IgG1, kappa, Heterodimerized anti-glypican-3 IgG1; mutation in the GpH7-B3 chain only; also called He Ab) heavy 1: not shown heavy 2: not shown light: DIVMTQSPLSLPVTPGEPASISCQASESLVHSNRNTYLHWYLQKPGQSPQLLIYKVSNRFSGVPDRFSGSGSGTDFTLKISRVEAEDVGVYYCSQNTHVPPTFGQGTKVEIERTVAAPSVFIFPPSDEQLKSGTASVVCLLNNFYPREAKVQWKVDNALQSGNSQESVTEQDSKDSTYSLSSTLTLSKADYEKHKVYACEVTHQGLSSPVTKSFNRGEC |  |  |  | He/Con_3a (relative binding activity) [7]: 33.5 % of control; He_3a/2b (IIIa/IIb) [8]: 4.46 ratio
7 | GpH7-A5/GpH7-B3 variant Y300_03V/GpL16-k0 (antibody, human IgG1, kappa, Heterodimerized anti-glypican-3 IgG1 (He Ab); mutation in the B3 H chain only; also called He Ab) heavy 1: not shown heavy 2: not shown light: DIVMTQSPLSLPVTPGEPASISCQASESLVHSNRNTYLHWYLQKPGQSPQLLIYKVSNRFSGVPDRFSGSGSGTDFTLKISRVEAEDVGVYYCSQNTHVPPTFGQGTKVEIERTVAAPSVFIFPPSDEQLKSGTASVVCLLNNFYPREAKVQWKVDNALQSGNSQESVTEQDSKDSTYSLSSTLTLSKADYEKHKVYACEVTHQGLSSPVTKSFNRGEC | 1.33 | 98% | 73.9% | 
8 | GpH7-A5/GpH7-B3 variant A327_07I/GpL16-k0 (antibody, human IgG1, kappa, Heterodimerized anti-glypican-3 IgG1; mutation in the GpH7-B3 chain only; also called He Ab) heavy 1: not shown heavy 2: not shown light: DIVMTQSPLSLPVTPGEPASISCQASESLVHSNRNTYLHWYLQKPGQSPQLLIYKVSNRFSGVPDRFSGSGSGTDFTLKISRVEAEDVGVYYCSQNTHVPPTFGQGTKVEIERTVAAPSVFIFPPSDEQLKSGTASVVCLLNNFYPREAKVQWKVDNALQSGNSQESVTEQDSKDSTYSLSSTLTLSKADYEKHKVYACEVTHQGLSSPVTKSFNRGEC |  |  |  | He/Con_2b (FcγRIIb [4]): 127 control = 100; He/Con_2aR (FcγRIIa R [5]): 98 control = 100; He_2aR/2b (FcγRIIa R [6]): 0.77 ratio
9 | GpH7-A5/GpH7-B3 variant Y300_11K/GpL16-k0 (antibody, human IgG1, kappa, Heterodimerized anti-glypican-3 IgG1 (He Ab); mutation in the B3 H chain only; also called He Ab) heavy 1: not shown heavy 2: not shown light: DIVMTQSPLSLPVTPGEPASISCQASESLVHSNRNTYLHWYLQKPGQSPQLLIYKVSNRFSGVPDRFSGSGSGTDFTLKISRVEAEDVGVYYCSQNTHVPPTFGQGTKVEIERTVAAPSVFIFPPSDEQLKSGTASVVCLLNNFYPREAKVQWKVDNALQSGNSQESVTEQDSKDSTYSLSSTLTLSKADYEKHKVYACEVTHQGLSSPVTKSFNRGEC | 1.3 | 66.9% | 51.6% | 
10 | GpH7-A5/GpH7-B3 variant A327_12R/GpL16-k0 (antibody, human IgG1, kappa, Heterodimerized anti-glypican-3 IgG1; mutation in the GpH7-B3 chain only; also called He Ab) heavy 1: not shown heavy 2: not shown light: DIVMTQSPLSLPVTPGEPASISCQASESLVHSNRNTYLHWYLQKPGQSPQLLIYKVSNRFSGVPDRFSGSGSGTDFTLKISRVEAEDVGVYYCSQNTHVPPTFGQGTKVEIERTVAAPSVFIFPPSDEQLKSGTASVVCLLNNFYPREAKVQWKVDNALQSGNSQESVTEQDSKDSTYSLSSTLTLSKADYEKHKVYACEVTHQGLSSPVTKSFNRGEC |  |  |  | He/Con_3a (relative binding activity) [7]: 19.3 % of control; He_3a/2b (IIIa/IIb) [8]: 2.15 ratio
11 | GpH7-A5/GpH7-B3 variant Y300_08L/GpL16-k0 (antibody, human IgG1, kappa, Heterodimerized anti-glypican-3 IgG1 (He Ab); mutation in the B3 H chain only; also called He Ab) heavy 1: not shown heavy 2: not shown light: DIVMTQSPLSLPVTPGEPASISCQASESLVHSNRNTYLHWYLQKPGQSPQLLIYKVSNRFSGVPDRFSGSGSGTDFTLKISRVEAEDVGVYYCSQNTHVPPTFGQGTKVEIERTVAAPSVFIFPPSDEQLKSGTASVVCLLNNFYPREAKVQWKVDNALQSGNSQESVTEQDSKDSTYSLSSTLTLSKADYEKHKVYACEVTHQGLSSPVTKSFNRGEC | 1.47 | 108% | 73.6% | 
12 | GpH7-A5/GpH7-B3 variant Y300_06M/GpL16-k0 (antibody, human IgG1, kappa, Heterodimerized anti-glypican-3 IgG1 (He Ab); mutation in the B3 H chain only; also called He Ab) heavy 1: not shown heavy 2: not shown light: DIVMTQSPLSLPVTPGEPASISCQASESLVHSNRNTYLHWYLQKPGQSPQLLIYKVSNRFSGVPDRFSGSGSGTDFTLKISRVEAEDVGVYYCSQNTHVPPTFGQGTKVEIERTVAAPSVFIFPPSDEQLKSGTASVVCLLNNFYPREAKVQWKVDNALQSGNSQESVTEQDSKDSTYSLSSTLTLSKADYEKHKVYACEVTHQGLSSPVTKSFNRGEC | 1.24 | 105% | 84.3% | 
